Key:
human PD-L1 [1] = biological target: T1, human PD-L1 (human, UniProt Q9NZQ7 19-290); assay: flow cytometry; PD-L1 MFI over CD28 MFI
T1 construct: also called huPD-L1; CD274
T1 sequence (Q9NZQ7 19-290): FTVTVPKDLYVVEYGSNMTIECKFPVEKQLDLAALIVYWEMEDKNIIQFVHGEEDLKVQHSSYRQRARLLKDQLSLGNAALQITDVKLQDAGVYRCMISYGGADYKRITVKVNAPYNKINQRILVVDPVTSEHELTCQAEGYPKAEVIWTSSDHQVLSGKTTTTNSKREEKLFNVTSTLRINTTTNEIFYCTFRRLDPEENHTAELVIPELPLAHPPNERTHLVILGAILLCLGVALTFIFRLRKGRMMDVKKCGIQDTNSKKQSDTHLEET

human CD28 [2] = biological target: T2, human CD28 (human, UniProt P10747 19-220); assay: flow cytometry on Jurkat cells (CD28)
T2 construct: Endogenous CD28 on Jurkat/IL2 reporter cells

human PD-L1 [3] = biological target: T1, human PD-L1; assay: flow cytometry on CHO cells stably expressing PD-L1
human CTLA-4 [4] = biological target: T3, human CTLA-4 (human, UniProt P16410 36-223); assay: flow cytometry on CHO cells stably expressing CTLA4
T3 construct: also called huCTLA4
T3 sequence (P16410 36-223): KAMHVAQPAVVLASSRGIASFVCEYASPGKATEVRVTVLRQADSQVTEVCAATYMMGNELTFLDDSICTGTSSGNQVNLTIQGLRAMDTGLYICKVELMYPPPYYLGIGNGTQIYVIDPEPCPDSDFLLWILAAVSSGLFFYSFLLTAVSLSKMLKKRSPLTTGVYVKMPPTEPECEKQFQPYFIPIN

human PD-L1 [5] = biological target: T1, human PD-L1; assay: flow cytometry on CHO cells stably expressing PD-L1; vs CD80 WT IgV-Fc
human CD28 [6] = biological target: T2, human CD28; assay: flow cytometry on Jurkat cells (CD28); vs CD80 WT IgV-Fc
human CTLA-4 [7] = biological target: T3, human CTLA-4; assay: flow cytometry on CHO cells stably expressing CTLA4; vs CD80 WT IgV-Fc
human PD-L1 [8] = biological target: T1, human PD-L1; assay: cell-based or functional assay
[9] = biological target: T4, human CTLA-4 (CTLA4), expressed on CHO cells (human, UniProt P16410 36-223); assay: flow cytometry on CHO cells stably expressing human CTLA-4; PE anti-human Fc
T4 construct: Full-length surface expression construct transduced by lentivirus into CHO cells; also called huCTLA4
T4 sequence (P16410 36-223): as above

[10] = biological target: T5, human PD-L1, expressed on CHO cells (human, UniProt Q9NZQ7 19-290); assay: flow cytometry on CHO cells stably expressing human PD-L1; PE anti-human Fc
T5 construct: Full-length surface expression construct transduced by lentivirus into CHO cells; also called huPD-L1; CD274
T5 sequence (Q9NZQ7 19-290): as the sequence (Q9NZQ7 19-290) above

[11] = biological target: T5, human PD-L1, expressed on CHO cells; assay: flow cytometry; ratio of MFI on PD-L1 CHO cells to MFI on Jurkat (CD28) cells
[12] = biological target: T4, human CTLA-4 (CTLA4), expressed on CHO …; assay: flow cytometry on CHO cells stably expressing human CTLA-4; MFI relative to WT CD80 ECD-Fc (R&D)
[13] = biological target: T5, human PD-L1, expressed on CHO cells; assay: flow cytometry on CHO cells stably expressing human PD-L1; MFI relative to WT CD80 ECD-Fc (R&D)
human CTLA4 = biological target: T6, human CTLA4 (human, UniProt P16410 36-223); assay: flow cytometry, CHO cells expressing huCTLA4
T6 construct: also called huCTLA4
T6 sequence (P16410 36-223): as the sequence (P16410 36-223) above

human PD-L1 [14] = biological target: T7, human PD-L1 (human, UniProt Q9NZQ7 19-290); assay: flow cytometry, CHO cells expressing huPD-L1
T7 construct: also called huPD-L1; CD274
T7 sequence (Q9NZQ7 19-290): as the sequence (Q9NZQ7 19-290) above

human CD28 [15] = biological target: human CD28 (human, UniProt P10747 19-220); assay: flow cytometry, Jurkat/IL2 reporter cells (endogenous CD28)

B1: CD80 E35D/M47V/N48K/V68M/K89N IgV-Fc, EAAAK linker (Fc fusion, not shown: a dimerising Fc or GST)
chain: VIHVTKEVKEVATLSCGHNVSVEELAQTRIYWQKDKKMVLTMMSGDVKIWPEYKNRTIFDITNNLSIMILALRPSDEGTYECVVLKYENDAFKREHLAEVTLSVKADEAAAK
- Ratio of PDL1:CD28 (human PD-L1 [1]): 9 ratio
- MFI at 33.3 nM (human CD28 [2]): 2630 MFI
- MFI at 33.3 nM (human PD-L1 [3]): 22900 MFI
- MFI at 33.3 nM (human CTLA-4 [4]): 27500 MFI
- Fold change to WT CD80 (human PD-L1 [5]): 491 fold
- Fold change to WT CD80 (human CD28 [6]): 47.1 fold
- Fold change to WT CD80 (human CTLA-4 [7]): 23 fold
- Fold Increase over WT CD80-IgV-Fc, Jurkat/IL2 + CHO/OKT3/PD-L1 Reporter Assay (human PD-L1 [8]): 4.38 fold
- RLU, Jurkat/IL2 + CHO/OKT3/PD-L1 Reporter Assay, CD80 Conc 5.0 nM (human PD-L1 [8]): 1710 RLU

B2: CD80 E35D/D46V/M47L/V68M/L85Q/E88D IgV-Fc, EAAAK linker (Fc fusion, not shown: a dimerising Fc or GST)
chain: VIHVTKEVKEVATLSCGHNVSVEELAQTRIYWQKDKKMVLTMMSGVLNIWPEYKNRTIFDITNNLSIMILALRPSDEGTYECVVQKYDKDAFKREHLAEVTLSVKADEAAAK
- Ratio of PDL1:CD28 (human PD-L1 [1]): 44 ratio
- MFI at 33.3 nM (human CD28 [2]): 563 MFI
- MFI at 33.3 nM (human PD-L1 [3]): 24800 MFI
- MFI at 33.3 nM (human CTLA-4 [4]): 29000 MFI
- Fold change to WT CD80 (human PD-L1 [5]): 533 fold
- Fold change to WT CD80 (human CD28 [6]): 10.1 fold
- Fold change to WT CD80 (human CTLA-4 [7]): 24.2 fold
- Fold Increase over WT CD80-IgV-Fc, Jurkat/IL2 + CHO/OKT3/PD-L1 Reporter Assay (human PD-L1 [8]): 3.75 fold
- RLU, Jurkat/IL2 + CHO/OKT3/PD-L1 Reporter Assay, CD80 Conc 5.0 nM (human PD-L1 [8]): 1460 RLU

B3: CD80 E35D/D46V/M47L/V68M/L85Q/E88D IgV-Fc, GS(G4S)5 linker (Fc fusion, not shown: a dimerising Fc or GST)
chain: VIHVTKEVKEVATLSCGHNVSVEELAQTRIYWQKDKKMVLTMMSGVLNIWPEYKNRTIFDITNNLSIMILALRPSDEGTYECVVQKYDKDAFKREHLAEVTLSVKADGSGGGGSGGGGSGGGGSGGGGSGGGGS
- Ratio of PDL1:CD28 (human PD-L1 [1]): 157 ratio
- MFI at 33.3 nM (human CD28 [2]): 143 MFI
- MFI at 33.3 nM (human PD-L1 [3]): 22400 MFI
- MFI at 33.3 nM (human CTLA-4 [4]): 26600 MFI
- Fold change to WT CD80 (human PD-L1 [5]): 481 fold
- Fold change to WT CD80 (human CD28 [6]): 2.6 fold
- Fold change to WT CD80 (human CTLA-4 [7]): 22.2 fold
- Fold Increase over WT CD80-IgV-Fc, Jurkat/IL2 + CHO/OKT3/PD-L1 Reporter Assay (human PD-L1 [8]): 5.26 fold
- RLU, Jurkat/IL2 + CHO/OKT3/PD-L1 Reporter Assay, CD80 Conc 5.0 nM (human PD-L1 [8]): 2050 RLU

B4: variant CD80 IgV-Fc E35D/M42V/M47V/E52D/L85Q (Fc fusion, not shown: small tags and cut ends; a dimerising Fc or GST)
chain: VIHVTKEVKEVATLSCGHNVSVEELAQTRIYWQKDKKMVLTVMSGDVNIWPDYKNRTIFDITNNLSIVILALRPSDEGTYECVVQKYEKDAFKREHLAEVTLSVKAD
notes: Fc fusion of the variant IgV
- MFI at 33.3 nM [9]: 226000 MFI
- MFI at 33.3 nM [10]: 11900 MFI
- Ratio of PDL1:CD28 [11]: 9 ratio
- Fold change to WT CD80 [12]: 1.44 fold
- Fold change to WT CD80 [13]: 1 fold

B5: variant CD80 IgV-Fc M47L/V68M/A71G/D90G (Fc fusion, not shown: small tags and cut ends; a dimerising Fc or GST)
chain: VIHVTKEVKEVATLSCGHNVSVEELAQTRIYWQKEKKMVLTMMSGDLNIWPEYKNRTIFDITNNLSIMILGLRPSDEGTYECVVLKYEKGAFKREHLAEVTLSVKAD
- MFI at 33.3 nM (human CTLA4): 17400 MFI
- MFI at 33.3 nM (human PD-L1 [14]): 31100 MFI
- MFI at 33.3 nM (human CD28 [15]): 3610 MFI

B6: variant CD80 IgV-Fc H18Y/A26E/E35D/D90G (Fc fusion, not shown: small tags and cut ends; a dimerising Fc or GST)
chain: VIHVTKEVKEVATLSCGYNVSVEELEQTRIYWQKDKKMVLTMMSGDMNIWPEYKNRTIFDITNNLSIVILALRPSDEGTYECVVLKYEKGAFKREHLAEVTLSVKAD
- MFI at 33.3 nM (human PD-L1 [14]): 10000 MFI

Reference: patent publication US20210130436A1 (published 2021)
